Assay results published in patent publication US11879019B2, “Dual-enzyme responsive peptides” (THE REGENTS OF THE UNIVERSITY OF CALIFORNIA, priority 2016, dated 2024).
Entries after “also recorded” stand apart in the source; their conditions may differ. Like-named read-outs stand apart in the source and are kept apart here. Square brackets hold non-standard residues; d marks the D form. Side chains are listed from the residue outwards. Peptide text beside a SMILES is read from it. * marks the point of attachment. ξ: configuration not given here. X2 = CN(CCN*)C(=S)Oc1ccc2c3c1O[C@H]1C(=O)CC[C@@]4(O)[C@@H](C2)N(CC2CC2)CC[C@]314; X1 = CN(CCN*)C(=O)Oc1ccc2c3c1OC1C(=O)CCC4(O)C(C2)N(CC2CC2)CCC314; X3 = CC(=O)N[C@@H](CCCCN*)C(=O)Nc1ccc([N+](=O)[O-])cc1; X4 = CN(CCN*)C(=O)Oc1ccc([N+](=O)[O-])cc1; Trt = c1ccc(C(c2ccccc2)(c2ccccc2)*)cc1; pNA = O=[N+]([O-])c1ccc(N*)cc1; ξF = NC(Cc1ccccc1)C(=O)O; Boc = CC(C)(C)OC(=O)*; ξK = NCCCCC(N)C(=O)O; ξC = NC(CS)C(=O)O; ξA = CC(N)C(=O)O

Key:
[1] = test system: trypsin and chymotrypsin; test: Trypsin + chymotrypsin assay (pNA release, absorbance at 405 nm); format: biochemical; conditions: for absorbance increase at 405 nm (pNA release): trypsin + chymotrypsin
Method: Stock solutions of enzymes were prepared by dissolving trypsin (60 mg/ml) in 1 mM HCl and chymotrypsin (60 mg/ml) in pH 7.4 0.035M HEPES+0.1M NaCl. The peptide substrate, (Ac-AAF)K-pNA, was dissolved in DMSO to make a 1 mM stock solution.
(§1) To wells in a 96-well plate, 87.5 μL pH 7.4 0.035M HEPES+0.1M NaCl and 2.5 μL peptide substrate were added. Absorbance was measured using a plate reader at 405 nm. Then, 5 μL trypsin and 5 μL chymotrypsin were added to the wells, and absorbance was measured at pre-determined time points. Absorbance values were subtracted from initial reading of only buffer and peptide. When testing only one enzyme, 5 μL buffer were added to keep total volume per well at 100 μL. All conditions prepared and measured in triplicate.
as §1, with “Stock solutions of enzymes were prepared by dissolving trypsin (60 mg/ml) in 1 mM HCl and chymotrypsin (60 mg/ml) in pH 7.4 0.035M HEPES+0.1M NaCl. The peptide substrate, (Ac-AAF)K-pNA, was dissolved in DMSO to make a 1 mM stock solution. To” for “To”, “were” for “prepared and”

[2] = test system: caspase 3 and trypsin; test: Caspase 3 + trypsin assay (pNA release, absorbance at 405 nm); format: biochemical
Method: (§2) Caspase 3 was taken directly from stock solution containing 1000 U/μL. A stock solution of trypsin was prepared by dissolving the enzyme (5 mg/ml) in 1 mM HCl. The peptide substrates were dissolved in DMSO to make 10 mM solutions. These were then diluted to 2.5 mM with pH 7.5 0.1 M HEPES containing 10 mM DTT, 2 mM EDTA, and 10% v/v glycerol. In a 96-well plate, 84 μL of buffer and 5 μL peptide were mixed together before measuring the absorbance at 405 nm to serve as a blank. 1 μL caspase-3 was added, and the plate was incubated at 23° C. for 12-24 hours and absorbance was measured again. Then, 5 μL trypsin were added to the well and absorbance measurements were taken at pre-determined time points. All conditions prepared and measured in triplicate. The same protocol was used for caspase 8 assays, adjusting peptide substrate concentration as needed.

[3] = test system: caspase 8 and trypsin; test: Caspase 8 + trypsin assay (pNA release, absorbance at 405 nm); format: biochemical; conditions: for cleavage by caspase 8 (absorbance increase): caspase 8 only, commercial single enzyme substrates
Method: as §2

[4] = test system: papain and trypsin; test: Papain + trypsin assay (pNA release, absorbance at 405 nm); format: biochemical
Method: Papain was reconstituted in deionized water at a concentration of 1 mg/ml. A stock solution of trypsin was prepared by dissolving the enzyme (10 mg/ml) in 1 mM HCl. The peptide substrate, (AcFG)K-pNA was dissolved in DMSO to make a 5 mM solution. Separately, 3M NaCl and 20 mM EDTA+50 mM cysteine (pH 6.2) solutions were prepared with deionized water. In a 96-well plate, 5 μL substrate were mixed with 45 μL NaCl and 40 μL EDTA+cysteine solutions. Absorbance was measured at 405 nm to serve as a blank. Then, 5 μL of both enzyme solutions were added, and absorbance measurements were taken at pre-determined time points. All conditions were prepared and measured in quadruplicate.

[5] = test system: trypsin and chymotrypsin; test: pNA release assay of CAAK(F)-diamino-pNA; format: biochemical; conditions: 2 mM, trypsin and/or chymotrypsin, 90 minutes, 37° C.
Method: A stock solution of the CAAK(F)-diamino-pNA (SEQ ID NO: 4) was prepared in dimethyl sulfoxide (DMSO) to produce a 16.0 mg/mL solution. A 7.5 mg/mL stock solution of the trypsin was prepared in 50 mM NH4HCO3 buffer (pH=8.05). A 7.5 mg/mL stock solution of chymotrypsin was prepared in 50 mM NH4HCO3 buffer (pH=8.05).
A 96 well plate was used for monitoring the solutions at 405 nm using a plate reader. 20 μL of the peptide was combined with 62.0/66.6 μL of no enzyme, trypsin only, chymotrypsin only, or with both enzymes respectively. All solutions were diluted to a total volume of 200 μL using 50 mM NH4HCO3 (pH=8.05). Blanks were prepared by combining the enzymes with DMSO/buffer and their absorbances were subtracted from the cleavage conditions. Additionally, the residual signal from the peptide in the presence of no enzymes was also used as a blank and subtracted out from enzymatic conditions.

[6] = for stability of the linker: over the entire pH range
Method: The stabilities of these linkages were assessed by HPLC by monitoring the relative amount of Naltrexone versus the intact peptide-Naltrexone conjugate.

[7] = 500 μM, caspase 8 for 24 hours before adding trypsin

In the case of `CC(=O)N[C@@H](C)C(=O)N[C@@H](C)C(=O)N[C@@H](Cc1ccccc1)C(=O)NCCCC[C@H](NC(C)=O)C(=O)Nc1ccc([N+](=O)[O-])cc1` [(AcAAF)K-pNA], the “change in absorbance at 405 nm” value ([1]; 100 μM peptide, chymotrypsin only) is reported as “no change in absorbance”, the “absorbance increase at 405 nm” value ([1]; 100 μM peptide, trypsin only) is reported as 0.016±0.002 AU and the “absorbance increase at 405 nm (pNA release)” value ([1]; 100 μM substrate) is reported as 0.070±0.002 AU. For the same compound, the “absorbance increase at 405 nm (pNA release)” value ([1]; 200 μM substrate) was 0.147±0.002 AU and the “absorbance increase at 405 nm (pNA release)” value ([1]; after five hours) was 0.039±0.003 AU.

With `CC(=O)N[C@@H](CCCCNC(=O)[C@H](CC(=O)O)NC(=O)[C@@H](NC(=O)[C@H](CCC(=O)O)NC(=O)[C@H](CC(=O)O)NC(C)=O)C(C)C)C(=O)Nc1ccc([N+](=O)[O-])cc1` [(AcDEVD)K-pNA] the “absorbance increase at 405 nm” value ([2]; 125 μM substrate, first caspase-3 then trypsin, over 60 minutes) was 0.1±0.006 AU, the “pNA release relative to release from commercial substrate AcDEVD-pNA” value ([2]; caspase 3 digestion) was 83% and the absorbance increase ([2]; trypsin or caspase 3 only) was “no absorbance increase”. The absorbance increase [3, 7] was “did not result in a significant absorbance increase”.

For `CC(=O)N[C@@H](CCCCNC(=O)[C@H](CC(=O)O)NC(=O)[C@H](CCC(=O)O)NC(=O)[C@@H](NC(=O)[C@H](CC(=O)O)NC(C)=O)C(C)C)C(=O)Nc1ccc([N+](=O)[O-])cc1` [(AcDVED)K-pNA] (Ac-DVED-X3), the pNA release ([2]; trypsin and caspase 3) was “no pNA release”.

With `CC(=O)N[C@@H](Cc1ccccc1)C(=O)NCC(=O)NCCCC[C@H](NC(C)=O)C(=O)Nc1ccc([N+](=O)[O-])cc1` [(AcFG)K-pNA] the absorbance increase ([4]; each enzyme separately (papain only or trypsin only)) was “no absorbance increase” and the pNA release ([4]; papain and trypsin, varying substrate concentrations) was “substrate dependent”.

For `CC[C@H](C)[C@H](NC(C)=O)C(=O)N[C@@H](CCC(=O)O)C(=O)N1CCC[C@H]1C(=O)N[C@@H](CC(=O)O)C(=O)NCCCC[C@H](NC(C)=O)C(=O)Nc1ccc([N+](=O)[O-])cc1` [(AcIEPD)K-pNA] (Ac-IEPD-X3), the absorbance increase [3, 7] was “did not result in a significant absorbance increase” and the absorbance increase ([3]; caspase 8 and trypsin, initial experiments) was “little to no absorbance increase”.

For `CC(=O)NC(CS)C(=O)NC(C)C(=O)NC(C)C(=O)NC(CCCCNC(=O)C(N)Cc1ccccc1)C(=O)NCCN(C)C(=O)Oc1ccc([N+](=O)[O-])cc1` (stereo not shown) [CAAK(F)-diamino-pNA] (Ac-CAAK(Phe)-X4; configuration not given here), the “theoretical pNA released” value [5] was 55%.

In the case of `CC(=O)NC(CSC(c1ccccc1)(c1ccccc1)c1ccccc1)C(=O)NC(C)C(=O)NC(C)C(=O)NC(CCCCNC(=O)C(Cc1ccccc1)NC(=O)OC(C)(C)C)C(=O)NCCN(C)C(=O)Oc1ccc2c3c1OC1C(=O)CCC4(O)C(C2)N(CC2CC2)CCC314` (stereo not shown) [NPC] (Ac-C(Trt)AAK([Phe-Boc])-X1; configuration not given here), the “Percent Degradation, t = 0.5 hr” value ([6]; conjugate without pH buffer) is reported as 0%, the “Percent Degradation, t = 24 hr” value ([6]; conjugate without pH buffer) is reported as 0% and the “stability of the linker” value [6] is reported as “very good stability”. The “Percent Degradation, t = 0.5 hr” value ([6]; pH 2) was 6.00%, the “Percent Degradation, t = 24 hr” value ([6]; pH 2) was 12.30% and the “Percent Degradation, t = 0.5 hr” value ([6]; pH 4) was 3.50%. For the same compound, the “Percent Degradation, t = 24 hr” value ([6]; pH 4) was 2.89%, the “Percent Degradation, t = 0.5 hr” value ([6]; pH 7) was 1.50% and the “Percent Degradation, t = 24 hr” value ([6]; pH 7) was 3.62%. The “Percent Degradation, t = 0.5 hr” value ([6]; pH 9) was 5.56%, the “Percent Degradation, t = 24 hr” value ([6]; pH 9) was 5.17% and the “Percent Degradation, t = 0.5 hr” value ([6]; pH 12) was 7.03%. The “Percent Degradation, t = 24 hr” value ([6]; pH 12) was 6.94%.

For `CC(=O)NC(CS)C(=O)NC(C)C(=O)NC(C)C(=O)NC(CCCCNC(=O)C(N)Cc1ccccc1)C(=O)NCCN(C)C(=S)Oc1ccc2c3c1O[C@H]1C(=O)CC[C@@]4(O)[C@@H](C2)N(CC2CC2)CC[C@]314` (stereo partly shown) [NPT] (Ac-[ξC][ξA][ξA][ξK](ξF)-X2), the “Percent Degradation, t = 0.5 hr” value ([6]; conjugate without pH buffer) was 0.51%, the “Percent Degradation, t = 24 hr” value ([6]; conjugate without pH buffer) was 2.90% and the “stability of the linker” value [6] was “more stable than the carbamate linker”. For the same compound, the “Percent Degradation, t = 0.5 hr” value ([6]; pH 2) was 3.23%, the “Percent Degradation, t = 24 hr” value ([6]; pH 2) was 4.10% and the “Percent Degradation, t = 0.5 hr” value ([6]; pH 4) was 1.67%. The “Percent Degradation, t = 24 hr” value ([6]; pH 4) was 2.04%, the “Percent Degradation, t = 0.5 hr” value ([6]; pH 7) was 3.22% and the “Percent Degradation, t = 24 hr” value ([6]; pH 7) was 3.59%. The “Percent Degradation, t = 0.5 hr” value ([6]; pH 9) was 4.69%, the “Percent Degradation, t = 24 hr” value ([6]; pH 9) was 3.37% and the “Percent Degradation, t = 0.5 hr” value ([6]; pH 12) was 5.15%. The “Percent Degradation, t = 24 hr” value ([6]; pH 12) was 6.72%.

In the case of “AcDEVD-pNA: commercially available single enzyme caspase substrate (SEQ ID NO: 7)”, the “cleavage by caspase 8 (absorbance increase)” value [3] is reported as “cleaved as expected; also recorded: significant absorbance increase over time”.

In the case of “AcIEPD-pNA: commercially available single enzyme caspase substrate (SEQ ID NO: 8) (Ac-IEPD-pNA; SMILES CC[C@H](C)[C@H](NC(C)=O)C(=O)N[C@@H](CCC(=O)O)C(=O)N1CCC[C@H]1C(=O)N[C@@H](CC(=O)O)C(=O)Nc1ccc([N+](=O)[O-])cc1)”, the “cleavage by caspase 8 (absorbance increase)” value [3] is reported as “cleaved as expected; also recorded: significant absorbance increase over time”.
